In PMC8395316 (2021) one finds Kd data, which are given here for one molecule.

The experiment addresses Spike-RBD RBD (Severe acute respiratory syndrome …, UniProt P0DTC2). The experiment in a line: ELISA. (ELISA stands for enzyme-linked immunosorbent assay.)

B1: Platelet Factor 4 (protein)
chain: SQVRPRHITSLEVIKAGPHCPTAQLIATLKNGRKICLDLQAPLYKKIIKKLLES
As for B1, the Kd is roughly 180 nM.

By Kd is commonly meant the free concentration of one partner at which half of the binding sites on the other are occupied at equilibrium, for simple one-to-one binding. Higher therefore signals lower affinity.
